Experimental findings from publication PMC2706102 (Nature structural & molecular biology, 2009) are described below.

The data set concerns the molecule itself. In words: HPLC sedimentation assay of aggregation.

In the case of KKQQQQQQQQQQQQQQQQQQQQQQQQQQQQQQQQQQQKK [Q35], the binding result was “binds”.

Consider KKQQQQQQQQQQQQQQQQQQQQQQQQQQQQQQQQQQQPPPPPPPPPPKK [Q35P10], for which the binding result was “binds”.
